Article PMC11790958

Molecular target: condensin I tetramer lacking NCAPG (CIΔG) (Homo sapiens, UniProt O95347;Q9NTJ3;Q15003;Q15021 1-1197;1-1288;1-741;1-1401)
Assay: EMSA; 2.5 mM Mg2+; EMSA: 50 nM DNA, 20 mM HEPES pH 8, 150 mM KCl, 2.5 mM MgCl2, 10% glycerol, 1 mM DTT, on ice 20 min; 2% agarose, 0.5x TB
Settings: protein: recombinant; tags: Strep; copies: 1;1;1;1; label: 5' Cy5 on reverse strand (S2); blunt

Sequence of condensin I tetramer lacking NCAPG (CIΔG) (O95347 whole entry, stated change not applied, chain 1 of 4): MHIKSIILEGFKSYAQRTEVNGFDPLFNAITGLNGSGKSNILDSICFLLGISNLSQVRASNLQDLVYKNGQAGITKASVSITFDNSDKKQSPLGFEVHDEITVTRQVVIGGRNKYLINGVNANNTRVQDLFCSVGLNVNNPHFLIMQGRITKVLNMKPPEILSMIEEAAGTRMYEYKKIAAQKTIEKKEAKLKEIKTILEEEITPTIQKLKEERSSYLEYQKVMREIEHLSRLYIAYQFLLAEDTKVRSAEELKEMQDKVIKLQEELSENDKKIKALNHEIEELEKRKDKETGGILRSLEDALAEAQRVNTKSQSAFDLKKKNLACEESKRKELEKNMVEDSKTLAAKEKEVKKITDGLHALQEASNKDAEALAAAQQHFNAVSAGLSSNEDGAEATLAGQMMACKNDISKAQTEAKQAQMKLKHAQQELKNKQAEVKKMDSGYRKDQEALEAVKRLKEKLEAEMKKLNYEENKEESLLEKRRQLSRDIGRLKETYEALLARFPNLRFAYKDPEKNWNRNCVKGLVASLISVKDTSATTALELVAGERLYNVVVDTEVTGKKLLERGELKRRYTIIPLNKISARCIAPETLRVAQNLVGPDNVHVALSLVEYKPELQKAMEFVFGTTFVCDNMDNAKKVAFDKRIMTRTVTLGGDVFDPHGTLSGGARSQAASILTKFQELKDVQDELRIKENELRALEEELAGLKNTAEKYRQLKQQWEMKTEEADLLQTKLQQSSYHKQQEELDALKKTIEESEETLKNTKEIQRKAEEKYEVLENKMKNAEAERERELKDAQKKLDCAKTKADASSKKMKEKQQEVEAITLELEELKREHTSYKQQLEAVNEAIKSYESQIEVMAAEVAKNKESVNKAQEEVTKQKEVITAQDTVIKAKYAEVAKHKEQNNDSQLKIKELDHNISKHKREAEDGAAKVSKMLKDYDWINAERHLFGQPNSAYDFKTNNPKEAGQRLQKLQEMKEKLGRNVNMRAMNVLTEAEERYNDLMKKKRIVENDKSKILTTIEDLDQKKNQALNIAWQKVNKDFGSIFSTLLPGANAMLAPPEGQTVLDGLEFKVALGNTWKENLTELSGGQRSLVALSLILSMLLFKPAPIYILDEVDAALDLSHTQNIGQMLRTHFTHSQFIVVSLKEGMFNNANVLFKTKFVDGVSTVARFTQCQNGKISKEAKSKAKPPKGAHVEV
Sequence of condensin I tetramer lacking NCAPG (CIΔG) (Q9NTJ3 whole entry, stated change not applied, chain 2 of 4): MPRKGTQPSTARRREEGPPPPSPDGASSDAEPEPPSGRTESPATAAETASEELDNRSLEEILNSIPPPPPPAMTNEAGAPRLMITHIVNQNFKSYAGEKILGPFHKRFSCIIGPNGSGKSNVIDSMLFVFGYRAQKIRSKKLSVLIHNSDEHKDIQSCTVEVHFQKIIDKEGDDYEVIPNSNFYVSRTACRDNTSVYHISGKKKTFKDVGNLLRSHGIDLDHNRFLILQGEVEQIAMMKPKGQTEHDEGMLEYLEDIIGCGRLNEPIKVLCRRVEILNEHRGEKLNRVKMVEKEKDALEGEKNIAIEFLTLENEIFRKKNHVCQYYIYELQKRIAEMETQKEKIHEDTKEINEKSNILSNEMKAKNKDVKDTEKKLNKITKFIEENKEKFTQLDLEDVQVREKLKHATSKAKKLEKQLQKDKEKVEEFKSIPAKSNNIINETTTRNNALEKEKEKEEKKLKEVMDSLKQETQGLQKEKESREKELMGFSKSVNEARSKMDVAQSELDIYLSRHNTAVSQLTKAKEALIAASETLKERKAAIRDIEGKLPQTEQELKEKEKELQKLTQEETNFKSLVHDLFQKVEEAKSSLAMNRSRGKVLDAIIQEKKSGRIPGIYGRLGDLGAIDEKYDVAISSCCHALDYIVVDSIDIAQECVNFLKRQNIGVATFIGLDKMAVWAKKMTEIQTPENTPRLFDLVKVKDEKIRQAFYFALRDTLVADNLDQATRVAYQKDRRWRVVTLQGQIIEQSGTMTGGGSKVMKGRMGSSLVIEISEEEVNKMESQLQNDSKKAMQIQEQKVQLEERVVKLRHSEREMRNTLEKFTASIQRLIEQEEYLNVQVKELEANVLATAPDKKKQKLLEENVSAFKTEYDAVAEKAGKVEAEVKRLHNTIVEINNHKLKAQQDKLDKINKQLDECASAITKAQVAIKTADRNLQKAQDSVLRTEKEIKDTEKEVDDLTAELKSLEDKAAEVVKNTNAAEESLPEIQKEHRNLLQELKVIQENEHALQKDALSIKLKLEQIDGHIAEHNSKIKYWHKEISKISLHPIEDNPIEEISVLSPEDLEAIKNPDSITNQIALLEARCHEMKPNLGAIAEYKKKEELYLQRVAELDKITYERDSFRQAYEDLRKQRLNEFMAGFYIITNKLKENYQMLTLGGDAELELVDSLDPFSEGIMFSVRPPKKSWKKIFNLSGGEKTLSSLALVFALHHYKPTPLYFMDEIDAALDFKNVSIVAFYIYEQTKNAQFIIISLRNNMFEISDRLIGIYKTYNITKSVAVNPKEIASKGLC
Sequence of condensin I tetramer lacking NCAPG (CIΔG) (Q15003 whole entry, stated change not applied, chain 3 of 4): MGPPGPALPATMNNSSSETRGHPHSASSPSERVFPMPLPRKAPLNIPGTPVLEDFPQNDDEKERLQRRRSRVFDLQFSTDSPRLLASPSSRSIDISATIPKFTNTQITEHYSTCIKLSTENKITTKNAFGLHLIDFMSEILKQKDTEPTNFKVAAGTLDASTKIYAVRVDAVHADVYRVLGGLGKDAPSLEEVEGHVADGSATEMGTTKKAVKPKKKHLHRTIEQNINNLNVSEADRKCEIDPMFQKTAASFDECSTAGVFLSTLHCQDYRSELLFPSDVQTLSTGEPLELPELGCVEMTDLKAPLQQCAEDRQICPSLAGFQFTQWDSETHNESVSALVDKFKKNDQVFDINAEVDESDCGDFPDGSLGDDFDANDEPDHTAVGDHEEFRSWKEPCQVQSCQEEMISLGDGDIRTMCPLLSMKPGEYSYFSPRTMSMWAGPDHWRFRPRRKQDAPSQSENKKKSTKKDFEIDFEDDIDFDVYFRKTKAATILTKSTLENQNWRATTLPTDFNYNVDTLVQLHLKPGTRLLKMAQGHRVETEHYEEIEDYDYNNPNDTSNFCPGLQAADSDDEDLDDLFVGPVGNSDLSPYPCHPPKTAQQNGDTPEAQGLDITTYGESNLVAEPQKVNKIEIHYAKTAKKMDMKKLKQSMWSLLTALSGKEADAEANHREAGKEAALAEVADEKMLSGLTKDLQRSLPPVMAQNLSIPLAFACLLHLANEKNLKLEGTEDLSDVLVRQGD
Sequence of condensin I tetramer lacking NCAPG (CIΔG) (Q15021 whole entry, stated change not applied, chain 4 of 4): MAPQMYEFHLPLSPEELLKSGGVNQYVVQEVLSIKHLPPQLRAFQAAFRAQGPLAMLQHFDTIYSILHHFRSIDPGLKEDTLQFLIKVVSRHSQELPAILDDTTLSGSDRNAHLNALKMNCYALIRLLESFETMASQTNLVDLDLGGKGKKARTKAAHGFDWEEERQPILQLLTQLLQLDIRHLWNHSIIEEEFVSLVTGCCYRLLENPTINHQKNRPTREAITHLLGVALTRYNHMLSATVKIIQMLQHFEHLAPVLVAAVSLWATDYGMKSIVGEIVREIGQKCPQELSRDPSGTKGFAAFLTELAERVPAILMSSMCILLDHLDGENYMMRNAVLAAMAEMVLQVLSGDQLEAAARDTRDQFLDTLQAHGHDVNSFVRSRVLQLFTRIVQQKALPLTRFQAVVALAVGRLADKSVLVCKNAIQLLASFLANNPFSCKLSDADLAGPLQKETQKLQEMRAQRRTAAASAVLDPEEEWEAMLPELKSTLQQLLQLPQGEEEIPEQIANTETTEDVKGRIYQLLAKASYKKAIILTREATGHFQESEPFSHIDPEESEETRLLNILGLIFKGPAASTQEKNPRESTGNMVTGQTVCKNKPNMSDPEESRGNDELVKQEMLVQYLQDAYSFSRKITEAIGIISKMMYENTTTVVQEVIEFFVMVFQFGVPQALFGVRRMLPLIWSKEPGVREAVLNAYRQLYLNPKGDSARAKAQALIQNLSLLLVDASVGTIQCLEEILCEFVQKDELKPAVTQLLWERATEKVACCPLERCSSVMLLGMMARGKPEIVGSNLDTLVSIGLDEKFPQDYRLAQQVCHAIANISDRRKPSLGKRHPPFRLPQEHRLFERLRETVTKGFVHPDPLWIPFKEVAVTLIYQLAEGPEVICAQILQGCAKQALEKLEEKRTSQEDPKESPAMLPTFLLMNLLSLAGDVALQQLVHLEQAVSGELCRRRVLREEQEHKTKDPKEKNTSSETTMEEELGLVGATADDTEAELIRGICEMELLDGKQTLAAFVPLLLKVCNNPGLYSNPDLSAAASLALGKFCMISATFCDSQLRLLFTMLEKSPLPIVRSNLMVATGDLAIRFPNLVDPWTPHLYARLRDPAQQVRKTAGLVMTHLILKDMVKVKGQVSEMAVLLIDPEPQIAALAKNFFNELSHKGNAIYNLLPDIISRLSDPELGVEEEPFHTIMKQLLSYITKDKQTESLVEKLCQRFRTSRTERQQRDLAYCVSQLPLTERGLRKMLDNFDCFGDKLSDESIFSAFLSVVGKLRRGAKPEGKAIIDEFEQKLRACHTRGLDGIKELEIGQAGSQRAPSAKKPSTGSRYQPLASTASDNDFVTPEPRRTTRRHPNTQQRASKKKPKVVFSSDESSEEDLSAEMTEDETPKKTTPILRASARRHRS

B1: Cy5 50 bp dsDNA (dsDNA)
DNA 1: GGTGTGACAGGGTGTGACAGGGTGTGACAGGGTGTGACAGGGTGTGACAG
DNA 2: CTGTCACACCCTGTCACACCCTGTCACACCCTGTCACACCCTGTCACACC
binding signal: ~4 fold lower affinity than CI
